Patent publication US20090017017A1 (SYMPHOGEN A S, published 2009)
Changes are numbered by the printed parent chain.

T1: Rhesus D antigen (human, UniProt Q02161 2-417)
T1 construct: whole, on cells; Presented on RhD(+) erythrocytes; also called RhD; RhD antigen
T1 sequence (looked up): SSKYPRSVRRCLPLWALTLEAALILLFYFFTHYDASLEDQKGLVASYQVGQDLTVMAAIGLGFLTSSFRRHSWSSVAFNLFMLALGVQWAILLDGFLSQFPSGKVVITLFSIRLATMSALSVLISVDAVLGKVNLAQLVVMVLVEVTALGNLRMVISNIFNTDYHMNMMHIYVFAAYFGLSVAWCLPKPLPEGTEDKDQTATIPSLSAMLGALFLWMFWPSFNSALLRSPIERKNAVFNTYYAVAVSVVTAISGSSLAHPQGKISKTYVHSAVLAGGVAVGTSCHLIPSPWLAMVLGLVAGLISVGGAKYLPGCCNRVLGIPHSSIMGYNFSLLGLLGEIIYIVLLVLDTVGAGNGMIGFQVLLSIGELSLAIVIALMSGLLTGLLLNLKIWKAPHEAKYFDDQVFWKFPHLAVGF

B1: RhD205.160B12 (Fab, V domains shown)
VH: EVQLVETGGGLVKPGGSLRLSCAASGFTFRSYSMNWVRQAPGKGLEWVSSIGSSSTYTYSADSVKGRFTISRDNAKNSLYLQMNSLRAEDTAVYYCARGEPLNYDYIWGGYRFTIHWGQGTLVTVSS
VL: DIQLTQSPSFLSASVGDRVTITCRASHGISSYLAWYQQKPGKAPNLLIFPASTLQSGVPSRFSGSGSGTEFTLTISSLRPEDFATYYCQQLNSYSRWAFGQGTKVEVKR
notes: Tested as Fab in E. coli periplasmic extract (VH on human gamma 1 CH1, vector Em351)
B2: RhD157.119D11 (Fab, V domains shown)
VH: EVQLVESGGGLVQPGGSLRLSCVASGFTFRSFDMNWVRQAPGKGLEWVSYINSRGSTIYYADSVKGRFTISRENAKNSLYLQMNSLRAEDTAVYYCARDLYGDYDPKSYYYYGMGVWGQGTTVTVSS
VL: EIVLTQSPATLSLSPGERATLSCRASQSVSSYLAWYQQKRGQAPRLLIFNASNRATGIPARFSGSGSGTDFTLTISSLEPEDFAVYYCQQRSSWPPMYTFGQGTKLEIKR
notes: as for B1
B3: RhD194.126G10 (Fab, V domains shown)
VH: QVTLKESGPVLVKPTETLTLTCTVSGFSLSNARMGVSWIRQPPGKALEWLAHIFSNDEKSYSTSLKSRLTISKDTSKSQVVLTMTNMDPVDTATYYCARMRLTMVRGVITYYYYSMDVWGQGTTVTVSS
VL: DIQMTQSPSSLSASVGDRVTITCRASQSISTYLNWYQQKPGKAPKLLIYAASTLQSGVPSRFSGSGSGTHFTLTISSLQREDFATYYCQQTYRTPTWTFGQGTKVEIKR
notes: as for B1
B4: RhD298.126E10 (Fab, V domains shown)
VH: QVQLVESGGGVVQPGRSLRLSCAASGFTFSSYGMHWVRQAPGKGLEWVAVIWYDGSNKYYADSVKGRFTISRDNSKNTLYLQMNSVRAEDTAVYYCARDLSTQRGYSRYYYVMDVWGQGTTVTVSS
VL: B3 VL with Y49S, T53S, H70D, F83Y, T85A, T91S, R93S, T96P, W97Y, V105L
notes: as for B1
B5: RhD198.127F10 (Fab, V domains shown)
VH: B4 VH with E6Q, R16K, S31T, N74T, A88V, S101T, Y110H
VL: DIQMTQSPSSLSASVGDRVTITCRASQSIGNYLNWYQQKPGKAPKLLISAASSLQSGVPSRFSGSGSGTDFTLTISSLHREDYATYYCQQSYSTPPYTFGQGTKLEIKR
notes: as for B1
B6: RhD196.126H11 (Fab, V domains shown)
VH: B4 VH with Y59D, D99E, Y110H
VL: B3 VL with T91S, R93G
notes: as for B1
B7: RhD202.158E07 (Fab, V domains shown)
VH: QVQLVESGGGVVQPGRSLRLSCAASGFTFSSYGMHWVRQAPGKGLEWVAVIWFDGSNRYYGDSVKGRVTISRDNSKNTLYLRMNSLRAEDTAVYYCAREFYTRSGLWSQGYSYYMDVWGKGTTVTVSS
VL: EIVLTQSPGTLSLSPGERATLSCRASQSVSSSYLAWYQHKPGQAPRLLIYGSSNRATGIPDRFSGSGSGTDFTVTISRLEPEDFAVYYCQQYGTAPYTFGQGTKLEIKR
notes: as for B1
B8: RhD191.119E08 (Fab, V domains shown)
VH: QVQLVESGGDLVQPGGSLRLSCAASGFTFRSYEMNWVRQAPGKGLEWVSYINSRGNTKYYADSVKGRFTISRDNAKKSLYLQMSSLRAEDTAVYYCARNLFGDYDLKSYYYNAMDVWGQGTLVTVSS
VL: EIVLTQSPGTLSSSPGERATLSCRASQSVTSRYLAWYQQKHGQAPRLLIYGTSTRATGIPDRFSGGGSQTDFTLTISRLEPEDFAVYYCQHYDDSISTYIFGPGTELEIKR
notes: as for B1
B9: RhD190.119F05 (Fab, V domains shown)
VH: EVQLVETGGGVVQPGRSLRLSCAASGFSFSNYGMHWVRQAPGKGLEWVAVIWFDGSIKYYVDSVKGRFTISRDNSKNTLYLQMNSLRAEETAIYFCARENSVLVPGTIRRRYYLDYWGQGTLVTVSS
VL: DIQLTQSPSSLSASVGDRVTITCRASQSISSYLNWYQQKPGEAPKLLIYVASTLQSGAPSRFSGSGSGTDYTLTISSLQPEDSATFYCQQTYSPPYTFGQGTKLEIKR
notes: as for B1
B10: RhD204.128A03 (Fab, V domains shown)
VH: EVQLVESGGGVVQPGRSLRLSCAASGFSFSNYGMHWVRQAPGKGLEWVAVISYDGSEKYYADSVKGRFTISRDNSKKALYLQMNSLRAEDTAMYYCKNKVGATRRAVVAFDIWGQGTTVTVSS
VL: LSSELTQDPAVSVALGQTVRITCQGDSLRSYYANWYQQKPGQAPLSVIYGKNNRPSGIPDRFSGSNSGNTAFLTITGTQAEDEADYYCNSRDSSGNYRELFGGGTKLTVLG
notes: Tested as Fab in E. coli periplasmic extract (VH on human gamma 1 CH1, vector Em351); Lambda clone
B11: RhD197.127A08 (Fab, V domains shown)
VH: QVQLVESGGGVVQPGRSLRLSCAASGFTFSNYGMHWVRQAPGKGLEWVAVIWFDGSNRDYADSVKGRFTISRDNSKKTLYLQMNSLRAEDTAVYYCATELARGRLRALEYWGQGTLVTVSS
VL: QTVVTQEPSLTVSPGGTVTLTCASSTGAVTTGYYPNWFQQKPGQAPRALIYSTSKKHSWTPARFSGSLLGGKAALTLSGVQPEDEAEYYCLLFYGGAQLGVFGGGTKLTVLG
notes: as for B10
B12: RhD207.127A11 (Fab, V domains shown)
VH: EVQLVESGGGVVQPGRSLRLSCAASGFTFSSYGMHWVRQAPGKGLEWVAVIWYDGSNKDYVDSVKGRFTISRDNSKNTLYLQMNSLRAEDTAVYYCARELAKGRLRDLDHWGQGTLVTVSS
VL: B11 VL with T2A, I50V, Y51H
notes: as for B1
B13: RhD200.164G10 (Fab, V domains shown)
VH: VQLVESGGGGVVQPGRSLRLSCAASGFTFSSYGMHWVRQAPGKGLEWVAVIWYDGSNKYYADSVKGRFTISRDNSKNTLYLQMNSLRAEDTAVYYCARESTLYSSSWYRRYYYYGMDVWGQGTTVTVSS
VL: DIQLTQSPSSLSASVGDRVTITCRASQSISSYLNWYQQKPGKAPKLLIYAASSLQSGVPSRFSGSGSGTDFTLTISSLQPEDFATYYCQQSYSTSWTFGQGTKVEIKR
notes: as for B1
B14: RhD201.164H12 (Fab, V domains shown)
VH: B13 VH with V1Q, Q2V, L3Q, V4L, E5V, S6E, G7S, G33A, W52S, G115S
VL: EIVLTQSPATLSVSPGERATLSCRASQSVTSNLAWYQQKPGQAPRLLIYGASTRATGVPARFSGSGSGTEFSLTISSLQSEDFAVYYCQQYNNWPPIFTFGPGTKLDIKR
notes: as for B1
B15: RhD195.127A07 (Fab, V domains shown)
VH: QVQLQESGPGLVKPSQTLSLTCTVSGGSISSGSYYWSWIRQPAGKGPEWIGRIYTSGSTNYNPSLKSRLTISVDTSKNQFSLKLTSVTAADTAVYYCARAPSYYDSSGYRYWYIDLWGRGTLVTVSS
VL: DIQLTQSPSSLSASVGDRVTITCRASQNINRYLNWYQHKPGRAPELLIYAASTLRRGVPSRFSGSGSGTDFTLTISSLQPEDFATYYCQQSYSRGTFGQGTKVEIKR
notes: as for B1
B16: RhD193.126G05 (Fab, V domains shown)
VH: QVQLVETGGGVVQPGRSLRLSCAASGFTFSSYGMHWVRQAPGKGLEWVAVIWYDGSNKDYADPVKGRFTISRDNSKNTLYLQMNSLRAEDTAVYYCAREIASRGYSRYLYYFDSWGQGTLVTVSS
VL: DIQMTQSPSSLSASVGDRVTITCRASQSISSYLNWYQQNPGKAPKLLIYGASNLQSGVPSRFSGSGSGTDFTLTISSLQPEDFATYYCQQSYSTLALTFGGGTKVEIKR
notes: as for B1
B17: RhD297.126E06 (Fab, V domains shown)
VH: B16 VH with T7S, S30R, S31T, P63S, Y80H, F112L, S114F
VL: B16 VL with M4L
notes: as for B1
B18: RhD203.179F07 (Fab, V domains shown)
VH: EVQLVESGGGVVQPGRSLRLSCAASGFTFSNYGMHWVRQAPGKGLEWVAVIWYDGSNKYYADSVKGRFTISRDNSKNTLYLQMNSLRAEDTAVYYCAREMVSYSSSWYRRYYYYVMDVWGKGTTVTVSS
VL: QSALTQPASVSGSPGQSITISCTATSSDIGAYNYVSWYQHHPGKAPKVIITDVNKRPSGVPDRFSGSKSGNTASLTISGLQPEDEAEYSCCSYAGTYSYVFGTGTKVTVLS
notes: as for B1
B19: RhD192.119G06 (Fab, V domains shown)
VH: QVQLVESGGGLVKPGGSLRLSCAASGFTFSSYAMNWVRQAPGKGLEWVSSISGTSSYIYYADSVKGRFTIFRDNAKSSVYLQMNSLRVEDTAVYYCARDRWWGMVRRVFPTYPFDYWGQGTLVTVSS
VL: DIQLTQSPSSVSASVGDRVTITCRASQGINNLLAWYQQKPGKAPKLLIYAASNLQSGVPSRFSGSGSGTDFTLTINSLQPEDFATYYCQQANSFPLTFGGGTKVEIKR
notes: as for B1

molecular target: T1, Rhesus D antigen; test: agglutination assay, Fab periplasmic extract on RhD(+)/RhD(-) RBC mix
Experimental: After each round of panning single colonies were picked for analysis of their binding properties to red blood cells in agglutination assays. Briefly, single colonies were inoculated into 2×YT/100 μg/mL carbenicillin/1% glucose and shaken overnight at 37° C. The next day, DeepWell plates were inoculated using 900 μl 2×YT/100 μg/mL carbenicillin/0.1% glucose and 10 μl overnight culture. The plates were shaken for two hours at 37° C., before Fab induction was performed with addition of 300 μl 2×YT/100 μg/mL carbenicillin/0.25 mM IPTG per well. The plate was shaken overnight at 30° C. The following day, the bacteria were pelleted by centrifugation (3200×g, 4° C., 10 minutes), and re-suspended in 100 μl of 0.8 M NaCl, 0.2×PBS, 8 mM EDTA, and incubated for 15 minutes on ice in order to perform a periplasmic extraction of the Fab fragments. The plate was transferred to −20° C. and finally the suspension was thawed and centrifugation was performed for 10 minutes at 4° C. and 3200×g. The periplasmic extract was used in ELISA assays for analysis of Fab content and in agglutination assays to evaluate the binding potential of the individual Fab fragments.
The agglutination assay was performed as follows: RhD(−) and RhD(+) RBC were mixed in a 1:1 ratio, and washed 3 times in PBS. After the final wash, the cell mix was re-suspended in 1% BSA in PBS at a density of 10% cells, 50 μl was added to each well of a 96-plate. Periplasmic extracts were added to the wells. As a positive control Rhesogamma P immunoglobulin (Aventis) was used according to the manufacturer's instructions. The plates were incubated for one hour at room temperature with gentle shaking. The cells were washed three times with PBS, before the secondary antibody was added (goat anti-human Fab/FITC conjugate, Sigma F5512) in a 1:100 dilution. The plates were left for agglutination for one hour at room temperature without shaking. Fab fragments positive in the agglutination assay was determined by visual inspection, and recorded by taking a picture. Quantization of the binding activity of the Fab fragments was performed by FACS analysis of the agglutination samples.

Row | binding result | Binder
1 | binds | B1
2 | binds | B2
3 | binds | B3
4 | binds | B4
5 | binds | B5
6 | binds | B6
7 | binds | B7
8 | binds | B8
9 | binds | B9
10 | binds | B10
11 | binds | B11
12 | binds | B12
13 | binds | B13
14 | binds | B14
15 | binds | B15
16 | binds | B16
17 | binds | B17
18 | binds | B18
19 | binds | B19
